# Laboratory results: patent US20250197499A1 (STEALTH IO, published 2025)
# T1: Recombinant human PD-L2-His tag (ACROBiosystems, #PD2-H5220) (human, UniProt Q9BQ51 20-219)
# T1 construct: Bought protein; also called sPD-L2; human PD-L2-His tag protein; not shown: His tag
# T1 sequence (looked up): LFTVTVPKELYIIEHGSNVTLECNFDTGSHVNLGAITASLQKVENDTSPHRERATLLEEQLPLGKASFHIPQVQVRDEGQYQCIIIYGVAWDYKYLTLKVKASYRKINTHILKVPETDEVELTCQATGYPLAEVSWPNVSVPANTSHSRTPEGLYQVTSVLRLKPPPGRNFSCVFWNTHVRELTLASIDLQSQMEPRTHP
# Columns and labels:
# [1] = molecular target: T1, Recombinant human PD-L2-His tag …; test: Octet RED96e; PD-L2-His loaded at 10 µg/ml on HIS1K sensor; sample 66,7 nM; negative control, response about zero, round fit values
# Description: (§1) FIG. 4a is a graph of Octet binding studies on sPD-L2. Recombinant human PD-L2-His tag (ACROBiosystems, #PD2-H5220) was loaded to His-sensor (HIS1 K (Anti-Penta-His)) at 10 μg/ml and the binding of each construct was evaluated by Octet RED96e.
# (§2) FIG. 4c is a graph depicting the KD values of anti-CD28/sPD-1 constructs on human PD-L2-His tag protein by Octet RED96e. The equilibrium dissociation constant (KD) is calculated as the ratio koff/kₒₙ (with koff:dissociation rates, and kₒₙ:association rates).
# (§3) Anti-CD28/sPD-1 antibody fusion constructs were assessed for their ability to bind PD-1 ligands, PD-L1 and PD-L2 by Octet RED96e. Recombinant human PD-L1-His tag (ACROBiosystems, #PD1-H5229) or recombinant human PD-L2-His tag (ACROBiosystems, #PD2-H5220) were loaded to His-sensor (HIS1 K (Anti-Penta-His)) at 10 μg/ml. […] FIG. 3c is a summary of affinity (measured as Kd, M) for each construct on human PD-L1. […] FIG. 4c is a summary of affinity (measured as Kd, M) for each construct on human PD-L2.
# [2] = molecular target: T2, Recombinant human PD-L1-His tag (ACROBiosystems, #PD1-H5229) (human, UniProt Q9NZQ7 19-238); test: Octet RED96e; PD-L1-His loaded at 10 µg/ml on HIS1K sensor; sample 66,7 nM; negative control, response about zero, round fit values
# T2 construct: Bought protein; also called sPD-L1; human PD-L1-His tag protein; not shown: His tag
# Description: (§4) FIG. 3a is a graph of Octet binding studies on sPD-L1. Recombinant human PD-L1-His tag (ACROBiosystems, #PD1-H5229) was loaded to His-sensor (HIS1K (Anti-Penta-His)) at 10 μg/ml and the binding of each construct was evaluated by Octet RED96e.
# (§5) FIG. 3c is a graph depicting the KD values of anti-CD28/sPD-1 constructs on human PD-L1-His tag protein by Octet RED96e. The equilibrium dissociation constant (KD) is calculated as the ratio koff/kₒₙ (with koff:dissociation rates, and kₒₙ:association rates).
# as §3
# [3] = molecular target: T1, Recombinant human PD-L2-His tag …; test: Octet RED96e; PD-L2-His loaded at 10 µg/ml on HIS1K sensor; sample 378,8 nM
# Description: as §1, §2, §3
# [4] = molecular target: T2, Recombinant human PD-L1-His tag …; test: Octet RED96e; PD-L1-His loaded at 10 µg/ml on HIS1K sensor; sample 75,8 nM
# Description: as §4, §5, §3
# [5] = molecular target: T1, Recombinant human PD-L2-His tag …; test: Octet RED96e; PD-L2-His loaded at 10 µg/ml on HIS1K sensor; sample 75,8 nM
# Description: as §1, §2, §3
# [6] = molecular target: T2, Recombinant human PD-L1-His tag …; test: Octet RED96e; PD-L1-His loaded at 10 µg/ml on HIS1K sensor; sample 378,8 nM
# Description: as §4, §5, §3
# [7] = molecular target: T2, Recombinant human PD-L1-His tag …; test: Octet RED96e; PD-L1-His loaded at 10 µg/ml on HIS1K sensor; sample 55,6 nM
# Description: as §4, §5, §3
# [8] = molecular target: T1, Recombinant human PD-L2-His tag …; test: Octet RED96e; PD-L2-His loaded at 10 µg/ml on HIS1K sensor; sample 55,6 nM
# Description: as §1, §2, §3
# [9] = molecular target: T2, Recombinant human PD-L1-His tag …; test: Octet RED96e; PD-L1-His loaded at 10 µg/ml on HIS1K sensor; sample 277,8 nM
# Description: as §4, §5, §3
# [10] = molecular target: T1, Recombinant human PD-L2-His tag …; test: Octet RED96e; PD-L2-His loaded at 10 µg/ml on HIS1K sensor; sample 277,8 nM
# Description: as §1, §2, §3
Binder,Kd [3],koff [3],kon [3],Kd [4],koff [4],kon [4],Kd [5],koff [5],kon [5],Kd [6],koff [6],kon [6],also measured
"Monoclonal anti-CD28 (9.3) mAb (GeneTex, #GTX14664) (antibody, V domains shown, Bought 9.3 mAb without sPD-1 fusion; also called monoclonal antibody 9.3) VH: EVKLQQSGPGLVTPSQSLSITCTVSGFSLSDYGVHWVRQSPGQGLEWLGVIWAGGGTNYNSALMSRKSISKDNSKSQVFLKMNSLQADDTAVYYCARDKGYSYYYSMDYWGQGTSVTVSS VL: DIELTQSPASLAVSLGQRATISCRASESVEYYVTSLMQWYQQKPGQPPKLLIFAASNVESGVPARFSGSGSGTNFSLNIHPVDEDDVAMYFCQQSRKVPYTFGGGTKLEIK",–,–,–,–,–,–,–,–,–,–,–,–,Kd [1]: 100 nM; koff [1]: 0.001 s⁻¹; kon [1]: 10000 M⁻¹ s⁻¹; Kd [2]: 100 nM; koff [2]: 0.001 s⁻¹; kon [2]: 10000 M⁻¹ s⁻¹
"monovalent anti-CD28/sPD-1 wt (bispecific antibody, also called Monovalent anti-CD28/sPD-1 Wild type structure; bispecific protein complex A:B-C-X:C'-Y) light: DIELTQSPASLAVSLGQRATISCRASESVEYYVTSLMQWYQQKPGQPPKLLIFAASNVESGVPARFSGSGSGTNFSLNIHPVDEDDVAMYFCQQSRKVPYTFGGGTKLEIKRTVAAPSVFIFPPSDEQLKSGTASVVCLLNNFYPREAKVQWKVDNALQSGNSQESVTEQDSKDSTYSLSSTLTLSKADYEKHKVYACEVTHQGLSSPVTKSFNRGEC heavy: not shown not shown",23.7 nM,0.00318 s⁻¹,134000 M⁻¹ s⁻¹,23.3 nM,0.013 s⁻¹,559000 M⁻¹ s⁻¹,10 nM,0.00283 s⁻¹,282000 M⁻¹ s⁻¹,35.1 nM,0.0122 s⁻¹,348000 M⁻¹ s⁻¹,–
"monovalent anti-CD28/sPD-1 mut (bispecific antibody, The sPD-1 fragments carry G124S, K131Y and A132I (numbering of full-length human PD-1); also called Mono Mut; Monovalent anti-CD28/sPD-1 Mutated structure) light: DIELTQSPASLAVSLGQRATISCRASESVEYYVTSLMQWYQQKPGQPPKLLIFAASNVESGVPARFSGSGSGTNFSLNIHPVDEDDVAMYFCQQSRKVPYTFGGGTKLEIKRTVAAPSVFIFPPSDEQLKSGTASVVCLLNNFYPREAKVQWKVDNALQSGNSQESVTEQDSKDSTYSLSSTLTLSKADYEKHKVYACEVTHQGLSSPVTKSFNRGEC heavy: EVKLQQSGPGLVTPSQSLSITCTVSGFSLSDYGVHWVRQSPGQGLEWLGVIWAGGGTNYNSALMSRKSISKDNSKSQVFLKMNSLQADDTAVYYCARDKGYSYYYSMDYWGQGTSVTVSSASTKGPSVFPLAPSSKSTSGGTAALGCLVKDYFPEPVTVSWNSGALTSGVHTFPAVLQSSGLYSLSSVVTVPSSSLGTQTYICNVNHKPSNTKVDKRVEPKSCDKTHTCPPCPAPEFEGGPSVFLFPPKPKDTLMISRTPEVTCVVVDVSHEDPEVKFNWYVDGVEVHNAKTKPREEQYNSTYRVVSVLTVLHQDWLNGKEYKCKVSNKALPASIEKTISKAKGQPREPQVYTLPPSREEMTKNQVSLTCLVKGFYPSDIAVEWESNGQPENNYKTTPPVLDSDGSFFLYSKLTVDKSRWQQGNVFSCSVMHEALHNHYTQKSLSLSPGGGGSGGGGSGGGGSLDSPDRPWNPPTFSPALLVVTEGDNATFTCSFSNTSESFVLNWYRMSPSNQTDKLAAFPEDRSQPGQDCRFRVTQLPNGRDFHMSVVRARRNDSGTYLCSAISLAPYIQIKESLRAELRVTERRAEVPTAHPSPSPRPAGQFQ DKTHTCPPCPAPEFEGGPSVFLFPPKPKDTLMISRTPEVTCVVVDVSHEDPEVKFNWYVDGVEVHNAKTKPREEQYNSTYRVVSVLTVLHQDWLNGKEYKCKVSNKALPASIEKTISKAKGQPREPQVYTLPPSREEMTKNQVSLTCLVKGFYPSDIAVEWESNGQPENNYKTTPPVLDSDGSFFLYSKLTVDKSRWQQGNVFSCSVMHEALHNHYTQKSLSLSPGGGGSGGGGSGGGGSLDSPDRPWNPPTFSPALLVVTEGDNATFTCSFSNTSESFVLNWYRMSPSNQTDKLAAFPEDRSQPGQDCRFRVTQLPNGRDFHMSVVRARRNDSGTYLCSAISLAPYIQIKESLRAELRVTERRAEVPTAHPSPSPRPAGQFQ",1.33 nM,0.000183 s⁻¹,138000 M⁻¹ s⁻¹,1.57 nM,0.00083 s⁻¹,528000 M⁻¹ s⁻¹,1.05 nM,0.000342 s⁻¹,324000 M⁻¹ s⁻¹,2.17 nM,0.00061 s⁻¹,281000 M⁻¹ s⁻¹,–
"bivalent anti-CD28/sPD-1 mut (bispecific antibody, human IgG1, kappa, The sPD-1 fragments carry G124S, K131Y and A132I; also called Bi Mut; Bivalent anti-CD28/sPD-1 Mutated structure) light: DIELTQSPASLAVSLGQRATISCRASESVEYYVTSLMQWYQQKPGQPPKLLIFAASNVESGVPARFSGSGSGTNFSLNIHPVDEDDVAMYFCQQSRKVPYTFGGGTKLEIKRTVAAPSVFIFPPSDEQLKSGTASVVCLLNNFYPREAKVQWKVDNALQSGNSQESVTEQDSKDSTYSLSSTLTLSKADYEKHKVYACEVTHQGLSSPVTKSFNRGEC heavy: EVKLQQSGPGLVTPSQSLSITCTVSGFSLSDYGVHWVRQSPGQGLEWLGVIWAGGGTNYNSALMSRKSISKDNSKSQVFLKMNSLQADDTAVYYCARDKGYSYYYSMDYWGQGTSVTVSSASTKGPSVFPLAPSSKSTSGGTAALGCLVKDYFPEPVTVSWNSGALTSGVHTFPAVLQSSGLYSLSSVVTVPSSSLGTQTYICNVNHKPSNTKVDKRVEPKSCDKTHTCPPCPAPEFEGGPSVFLFPPKPKDTLMISRTPEVTCVVVDVSHEDPEVKFNWYVDGVEVHNAKTKPREEQYNSTYRVVSVLTVLHQDWLNGKEYKCKVSNKALPASIEKTISKAKGQPREPQVYTLPPSREEMTKNQVSLTCLVKGFYPSDIAVEWESNGQPENNYKTTPPVLDSDGSFFLYSKLTVDKSRWQQGNVFSCSVMHEALHNHYTQKSLSLSPGGGGSGGGGSGGGGSLDSPDRPWNPPTFSPALLVVTEGDNATFTCSFSNTSESFVLNWYRMSPSNQTDKLAAFPEDRSQPGQDCRFRVTQLPNGRDFHMSVVRARRNDSGTYLCSAISLAPYIQIKESLRAELRVTERRAEVPTAHPSPSPRPAGQFQ",–,–,–,–,–,–,–,–,–,–,–,–,Kd [7]: 1.21 nM; koff [7]: 0.000698 s⁻¹; kon [7]: 578000 M⁻¹ s⁻¹; Kd [8]: 0.774 nM; koff [8]: 0.0003 s⁻¹; kon [8]: 387000 M⁻¹ s⁻¹; Kd [9]: 1.65 nM; koff [9]: 0.00055 s⁻¹; kon [9]: 334000 M⁻¹ s⁻¹; Kd [10]: 0.883 nM; koff [10]: 0.000153 s⁻¹; kon [10]: 174000 M⁻¹ s⁻¹
